US20210371529A1 (Innovent, published 2021)

B1: 25F7 (antibody, V domains shown)
VH: QVQLQQWGAGLLKPSETLSLTCAVYGGSFSDYYWNWIRQPPGKGLEWIGEINHNGNTNSNPSLKSRVTLSLDTSKNQFSLKLRSVTAADTAVYYCAFGYSDYEYNWFDPWGQGTLVTVSS
VL: EIVLTQSPATLSLSPGERATLSCRASQSISSYLAWYQQKPGQAPRLLIYDASNRATGIPARFSGSGSGTDFTLTISSLEPEDFAVYYCQQRSNWPLTFGQGTNLEIK
B2: HZ3266-IgG1N297A (antibody, V domains shown)
VH: EVQLVQSGAEVKKPGATVKISCTASGFNIEDTYIHWVQQAPGQGLEWIGRIDPANDDTKYAPKFQGRATITADTSTDTAYMELSSLRSEDTAVYYCGRGLGRWFAYWGQGTLVTVSS
VL: GIVMTQSPDSLAVSLGERATINCKASQDVINAVAWYQQKPGQSPKLLIYSASNRYTGVPDRFSGSGSGTDFTLTISSLQAEDLAVYYCQQHYSPPLTFGGGTKVEIKR
notes: also called anti-PD-L1 antibody (HZ3266-IgG1N297A)
B3: ADI-26789 (antibody, human IgG4 S228P, kappa, F234A L235A, V domains shown)
VH: EVQLVESGGGLVQPGRSLRLSCAASGFTFDDYAMHWVRQAPGKGLEWVSGISWNSGDIGYADSVKGRFTISRDNAKNSLYLQMNSLRAEDTALYYCAKGGYDGSYYGMDVWGQGTTVTVSS
VL: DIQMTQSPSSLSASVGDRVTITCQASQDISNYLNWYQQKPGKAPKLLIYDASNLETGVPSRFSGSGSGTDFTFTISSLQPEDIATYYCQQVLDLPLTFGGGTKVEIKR
notes: Fully human antibody from yeast display; IgG4 heavy chain constant region with kappa light chain; also called anti-human LAG-3 antibody ADI-26789; parent antibody
B4: ADI-26869 (antibody, human IgG4 S228P, kappa, F234A L235A, V domains shown)
VH: QLQLQESGPGLVKPSETLSLTCTVSGGSISSSDYYWGWIRQPPGKGLEWIGSIYYSGSTYYNPSLKSRVTISVDTSKNQFSLKLSSVTAADTAVYYCARVRTWDAAFDIWGQGTMVTVSS
VL: DIQMTQSPSSLSASVGDRVTITCQASQDISNYLNWYQQKPGKAPKLLIYDASNLETGVPSRFSGSGSGTDFTFTISSLQPEDIATYYCQQVHALPPWTFGGGTKVEIKR
notes: Fully human antibody from yeast display; IgG4 heavy chain constant region with kappa light chain; expressed in HEK293 cells; also called anti-human LAG-3 antibody ADI-26869; parent antibody
B5: BAP050 (antibody, V domains shown)
VH: QIQLVQSGPELKKPGETVKISCKASGFTLTNYGMNWVRQTPGKGLKWMGWINTDTGEPTYADDFKGRFAFSLETSASTASLQINNLKNADTATYFCARNPPYYYGTNNAEAMDYWGQGTAVTVSS
VL: DIQMTQTTSSLSASLGDRVTISCSSSQDISNYLNWYQQKPDGTVKVLIYYTSTLHLGVPSRFSGSGSGTDYSLTISNLELEDIATYYCQQYYNLPWTFGGGTKLEIK

How the values were obtained:
[1] = target: T1, mouse LAG-3 overexpressed on CHO cells (mouse, UniProt Q61790 24-521); test: flow cytometry (MFI) on CHO cells overexpressing mouse LAG-3; fit value from the EC50 table on the sheet for a flat curve (see non_binding); table has no unit of its own (concentration axis in nM)
T1 construct: whole, on cells; also called CHO-mLAG-3 cells; mouse LAG-3 on the cell surface
T1 sequence (looked up): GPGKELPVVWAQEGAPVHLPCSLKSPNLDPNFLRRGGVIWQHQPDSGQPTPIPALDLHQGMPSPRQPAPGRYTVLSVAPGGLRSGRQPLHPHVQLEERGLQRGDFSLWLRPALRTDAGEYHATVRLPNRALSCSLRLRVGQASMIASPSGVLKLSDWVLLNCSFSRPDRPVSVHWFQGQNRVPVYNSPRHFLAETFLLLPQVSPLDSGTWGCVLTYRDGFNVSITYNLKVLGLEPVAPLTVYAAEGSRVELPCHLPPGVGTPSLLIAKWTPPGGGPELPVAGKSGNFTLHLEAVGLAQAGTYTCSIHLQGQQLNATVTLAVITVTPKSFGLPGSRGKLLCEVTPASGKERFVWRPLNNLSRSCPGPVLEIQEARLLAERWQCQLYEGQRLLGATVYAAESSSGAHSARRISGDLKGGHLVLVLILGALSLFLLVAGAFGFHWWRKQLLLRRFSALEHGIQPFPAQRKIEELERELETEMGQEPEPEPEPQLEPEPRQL

[2] = target: T2, human PD-L1 (human, UniProt Q9NZQ7 19-238); test: BLI (ForteBio), antibody loaded on sensor, human PD-L1 in solution
T2 construct: Bought antigen; also called human PD-L1 antigen (Acrobiosystems)
Method: The equilibrium dissociation constant (KD) for binding of the anti-PD-L1 antibody (HZ3266-IgG1N297A) to human PD-L1 was determined by biological optical interferometry (ForteBio). A ForteBio affinity assay of prior art was performed (Estep, P., et al, High throughput solution based measurement of antibody-antigen affinity and epitope binning. MAbs, 2013.5(2):270-8).
SD buffer, antibodies, and antigens (including human PD-L1, all purchased from Acrobiosystems) each of 100 μL were added to 96-well black polystyrene half area microplates (Greiner, 675076). The sensors were arranged according to the positions of the samples. The instrument settings were as follows: the operation procedures were Baseline, Loading ˜1 nm, Baseline, Association, and Dissociation. The run time of each procedure was dependent on the rates of association and dissociation. The rotation speed was 400 rpm, and the temperature was 30° C. The KD values were analyzed by ForteBio analysis software.

[3] = target: T3, human LAG-3-His (human, UniProt P18627 23-450); test: BLI (ForteBio), antibody on AHQ tip, human LAG-3-His 100 nM in solution
T3 construct: Bought antigen (ArcoBiosystems), 100 nM in solution in the ForteBio assay; also called human LAG-3 antigen (ArcoBiosystems); hLAG-3; not shown: His tag
T3 sequence (looked up): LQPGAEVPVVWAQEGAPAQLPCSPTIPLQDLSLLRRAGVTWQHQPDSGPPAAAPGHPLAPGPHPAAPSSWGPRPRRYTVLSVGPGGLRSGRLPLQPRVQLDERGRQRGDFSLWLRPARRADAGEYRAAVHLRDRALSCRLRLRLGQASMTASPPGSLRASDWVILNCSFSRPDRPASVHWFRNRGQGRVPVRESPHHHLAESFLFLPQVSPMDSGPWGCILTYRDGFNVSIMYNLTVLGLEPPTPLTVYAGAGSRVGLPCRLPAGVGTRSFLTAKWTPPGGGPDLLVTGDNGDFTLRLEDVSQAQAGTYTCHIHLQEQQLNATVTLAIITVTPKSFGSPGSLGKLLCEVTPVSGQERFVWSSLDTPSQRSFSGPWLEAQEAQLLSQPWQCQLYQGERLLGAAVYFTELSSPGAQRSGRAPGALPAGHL
Method: (§1) The purified antibody obtained as described above was loaded on-line onto an AHQ sensor (ForteBio) for ForteBio affinity assay. The sensor with the loaded antibody was then exposed to 100 nM of a human LAG-3 antigen (ArcoBiosystems) for 5 minutes before transferring the sensor to the assay buffer for dissociation for 5 minutes for dissociation rate measurement. Kinetic analysis was performed using a 1:1 binding model.

[4] = target: T3, human LAG-3-His; test: BLI (ForteBio), antibody on AHQ tip, human LAG-3-His 100 nM in solution, univalent
Method: as §1

[5] = target: T4, human LAG-3 overexpressed on HEK293 cells (human, UniProt P18627 23-525); test: flow cytometry on 293-hLAG-3 cells, MFI curve
T4 construct: whole, on cells; also called 293-hLAG-3 cells; hLAG-3 on the cell surface
T4 sequence (looked up): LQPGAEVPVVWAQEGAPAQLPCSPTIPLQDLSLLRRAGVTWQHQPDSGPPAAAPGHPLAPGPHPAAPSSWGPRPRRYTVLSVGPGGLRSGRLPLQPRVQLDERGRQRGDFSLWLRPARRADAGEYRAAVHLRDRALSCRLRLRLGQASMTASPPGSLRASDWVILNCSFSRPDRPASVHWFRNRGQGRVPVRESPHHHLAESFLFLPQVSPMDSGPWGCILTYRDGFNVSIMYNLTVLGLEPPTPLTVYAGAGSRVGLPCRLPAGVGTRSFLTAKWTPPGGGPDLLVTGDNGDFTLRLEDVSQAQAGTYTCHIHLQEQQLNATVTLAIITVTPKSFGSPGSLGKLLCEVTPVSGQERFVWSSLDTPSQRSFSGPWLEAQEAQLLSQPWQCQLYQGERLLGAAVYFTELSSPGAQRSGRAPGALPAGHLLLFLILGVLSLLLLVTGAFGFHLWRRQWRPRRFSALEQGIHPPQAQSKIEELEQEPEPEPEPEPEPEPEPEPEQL
Method: The binding of the 4 exemplary antibodies of the invention described above to human LAG-3 was measured in a flow cytometry-based assay. 293 cells (293-hLAG-3 cells) over-expressing human LAG-3 were generated by transfecting human embryonic kidney 293 cells (Invitrogen) with pCHO1.0 vectors (Invitrogen) carrying human LAG-3 cDNA (Sino Biological) cloned into multiple cloning sites (MCSs). 293-hLAG-3 cells (0.2×10⁶ cells) were mixed with different concentrations of antibodies (ADI-26789, ADI-26869 and reference 25F7) prepared as described above (the antibodies were serially three-fold diluted from a maximum concentration of 500 nM in PBS containing 0.1% bovine serum albumin (BSA) until the 8th concentration). The cells were incubated on ice for 30 min. The cells were then washed at least twice prior to addition of a secondary antibody (a PE-labeled goat anti-human IgG antibody, Southern Biotech, final concentration […]) diluted in 1:100, and incubated on ice (protected from light) for 30 minutes. The cells were washed at least twice and analyzed by flow cytometry. The flow cytometry assay was performed on an Accuri C6 system (BD Biosciences), and a concentration-dependent curve was fitted with GraphPad according to the mean fluorescence intensity (MFI).

T2 sequence (Q9NZQ7 19-238 limits assumed): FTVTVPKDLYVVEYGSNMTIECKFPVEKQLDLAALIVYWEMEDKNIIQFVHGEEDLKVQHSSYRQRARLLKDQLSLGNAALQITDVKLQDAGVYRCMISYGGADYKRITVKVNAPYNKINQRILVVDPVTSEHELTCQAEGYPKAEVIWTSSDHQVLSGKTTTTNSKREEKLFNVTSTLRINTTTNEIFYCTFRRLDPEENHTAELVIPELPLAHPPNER

Binder	EC50 [1] [nM]	Kd [2] [nM]	koff [3] [s⁻¹]	kon [3] [M⁻¹ s⁻¹]	Kd [4] [nM]	EC50 [5] [nM]
B1	0.857	–	–	–	–	–
B2	–	0.724	–	–	–	–
B3	–	–	0.00389	212000	18.3	2.14
B4	–	–	0.00385	488000	7.88	2.91
B5	~0.7	–	0.0002	237000	0.844	1.41
